In the supplement of paper PMC10724198:
± gives the standard deviation of the averaged measurements.

Assays:
Saccharomyces cerevisiae [1] = experiment: protein stability index of tFT-peptide fusion (C-terminal peptide) (PSI (0-1 scale)); higher = more stable (slower turnover)
Protocol: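 MPS profiling in S. cerevisiae of the tFT-X12 degron library: putative degron peptides plus stable controls, 12 aa, fused to the C-terminus of a sfGFP-mCherry timer. Cells are FACS-sorted into 8 mCherry/sfGFP bins and deep-sequenced. PSI runs from 0 (unstable) to 1 (stable). Backgrounds are wild type, das1Δ and doa10Δ at 30 °C, and wild type, das1Δ, cdc34-1 and cdc53-1 at 37 °C; 2-3 technical replicates each.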

Saccharomyces cerevisiae [2] = experiment: as above; settings: genetic background: wild type; temperature: 30 C
[3] = genetic background: cdc34-1, temperature: 37 C
[4] = genetic background: cdc53-1, temperature: 37 C
[5] = genetic background: das1 deletion, temperature: 30 C
[6] = genetic background: das1 deletion, temperature: 37 C
[7] = genetic background: doa10 deletion, temperature: 30 C
[8] = genetic background: wild type, temperature: 30 C
[9] = genetic background: wild type, temperature: 37 C
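Also: PSI is a weighted mean of sequencing reads over stability bins, variants kept only with over 10 reads, mCherry proximal and sfGFP distal, peptide attached via GGGS linker.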

| Sequence | protein stability index (Saccharomyces cerevisiae [1]; [3]) | protein stability index (Saccharomyces cerevisiae [1]; [4]) | protein stability index (Saccharomyces cerevisiae [1]; [5]) | protein stability index (Saccharomyces cerevisiae [1]; [6]) | protein stability index (Saccharomyces cerevisiae [1]; [7]) | protein stability index (Saccharomyces cerevisiae [1]; [8]) | protein stability index (Saccharomyces cerevisiae [1]; [9]) | protein stability index (Saccharomyces cerevisiae [2]) |
| --- | --- | --- | --- | --- | --- | --- | --- | --- |
| IACVLSIFLNAA | 0.325 ± 0.0071 | 0.435 ± 0.051 | 0.292 ± 0.039 | 0.435 ± 0.0047 | 0.2559 ± 0.0013 | 0.274 ± 0.031 | 0.436 ± 0.0094 | 0.44 ± 0.054 |
| ICQFFFFALLSF | 0.109 ± 0.04 | 0.0674 ± 0.0054 | 0.164 ± 0.016 | 0.244 ± 0.021 | 0.238 ± 0.011 | 0.128 ± 0.018 | 0.19 ± 0.0063 | 0.178 ± 0.013 |
| IDSEVHLWKRSA | 0.618 ± 0.046 | 0.725 ± 0.012 | 0.642 ± 0.017 | 0.719 ± 0.037 | 0.16 ± 0.016 | 0.176 ± 0.027 | 0.405 ± 0.011 | 0.336 ± 0.058 |
| IFAVLVSGSFFF | 0.425 ± 0.018 | 0.541 ± 0.014 | 0.324 ± 0.051 | 0.545 ± 0.017 | 0.318 ± 0.0053 | 0.336 ± 0.041 | 0.509 ± 0.017 | 0.4288 ± 0.00067 |
| IFLGFGPLFGRL | 0.862 ± 0.044 | 0.878 ± 0.011 | 0.727 ± 0.03 | 0.817 ± 0.034 | 0.726 ± 0.037 | 0.73 ± 0.0083 | 0.824 ± 0.03 | 0.777 ± 0.034 |
| IGSFFLFFLLIF | 0.281 ± 0.025 | 0.291 ± 0.029 | 0.3 ± 0.025 | 0.383 ± 0.0054 | 0.354 ± 0.027 | 0.245 ± 0.045 | 0.3726 ± 0.0017 | 0.384 ± 0.02 |
| IIIGTLLYVNVR | 0.279 ± 0.0059 | 0.323 ± 0.033 | 0.243 ± 0.03 | 0.403 ± 0.012 | 0.188 ± 0.018 | 0.215 ± 0.029 | 0.39 ± 0.041 | 0.29 ± 0.022 |
| IKRLKEVARHVS | 0.623 ± 0.057 | 0.706 ± 0.017 | 0.645 ± 0.03 | 0.694 ± 0.0085 | 0.265 ± 0.019 | 0.256 ± 0.031 | 0.4381 ± 0.0021 | 0.44 ± 0.054 |
| ILGQSVIMRIKM | 0.673 ± 0.035 | 0.7301 ± 0.0028 | 0.615 ± 0.027 | 0.7007 ± 0.00077 | 0.606 ± 0.0061 | 0.636 ± 0.02 | 0.686 ± 0.014 | 0.714 ± 0.075 |
| ILLICLQFFNLF | 0.427 ± 0.057 | 0.544 ± 0.012 | 0.394 ± 0.035 | 0.5269 ± 0.0039 | 0.3502 ± 0.00069 | 0.36 ± 0.018 | 0.505 ± 0.0075 | 0.4481 ± 0.0036 |
| ILRIYIPRWRRQ | 0.648 ± 0.069 | 0.6821 ± 0.0054 | 0.62 ± 0.02 | 0.7292 ± 0.0032 | 0.119 ± 0.032 | 0.132 ± 0.035 | 0.332 ± 0.0091 | 0.219 ± 0.087 |
| INKKKKMIITKI | 0.617 ± 0.11 | 0.726 ± 0.011 | 0.662 ± 0.073 | 0.742 ± 0.063 | 0.227 ± 0.0025 | 0.253 ± 0.043 | 0.479 ± 0.015 | 0.427 ± 0.019 |
| IPRSCRIRLAVL | 0.658 ± 0.03 | 0.715 ± 0.0073 | 0.562 ± 0.032 | 0.7175 ± 0.0055 | 0.254 ± 0.0096 | 0.271 ± 0.027 | 0.359 ± 0.021 | 0.359 ± 0.014 |
| IQICLNRLRLFH | 0.654 ± 0.024 | 0.7 ± 0.01 | 0.63 ± 0.016 | 0.7002 ± 0.0018 | 0.251 ± 0.016 | 0.305 ± 0.02 | 0.573 ± 0.043 | 0.4361 ± 0.0038 |
| IRACGCSFLWVC | 0.465 ± 0.048 | 0.63 ± 0.01 | 0.5 ± 0.026 | 0.678 ± 0.0079 | 0.1113 ± 0.00066 | 0.106 ± 0.0056 | 0.118 ± 0.015 | 0.192 ± 0.035 |
| IRLCAASFMVVF | 0.501 ± 0.025 | 0.55 ± 0.03 | 0.414 ± 0.023 | 0.5352 ± 0.0027 | 0.3904 ± 0.0034 | 0.405 ± 0.023 | 0.524 ± 0.014 | 0.474 ± 0.017 |
| IRSRGLLIRWLS | 0.52 ± 0.025 | 0.679 ± 0.023 | 0.616 ± 0.026 | 0.721 ± 0.011 | 0.0894 ± 0.0094 | 0.0994 ± 0.033 | 0.148 ± 0.015 | 0.182 ± 0.015 |
| IVCAVTSIFLFF | 0.306 ± 0.015 | 0.45 ± 0.0079 | 0.288 ± 0.014 | 0.452 ± 0.016 | 0.243 ± 0.01 | 0.249 ± 0.035 | 0.422 ± 0.0045 | 0.315 ± 0.021 |
| IVRSLFGYLCVV | 0.571 ± 0.0099 | 0.609 ± 0.0076 | 0.524 ± 0.015 | 0.633 ± 0.0095 | 0.427 ± 0.0099 | 0.437 ± 0.022 | 0.569 ± 0.0066 | 0.467 ± 0.037 |
| KCVVMFFLRSVS | 0.636 ± 0.024 | 0.6956 ± 0.0065 | 0.529 ± 0.037 | 0.676 ± 0.022 | 0.396 ± 0.012 | 0.412 ± 0.011 | 0.598 ± 0.011 | 0.5 ± 0.026 |
| KFFRSWVLTSPA | 0.585 ± 0.06 | 0.607 ± 0.015 | 0.427 ± 0.032 | 0.6157 ± 0.0025 | 0.41 ± 0.021 | 0.444 ± 0.018 | 0.609 ± 0.021 | 0.494 ± 0.057 |
| KFRGMTLRNKVC | 0.545 ± 0.041 | 0.73 ± 0.047 | 0.657 ± 0.019 | 0.717 ± 0.017 | 0.093 ± 0.0025 | 0.1 ± 0.04 | 0.224 ± 0.069 | 0.267 ± 0.013 |
| KHTGTGNAPNCD | 0.686 ± 0.061 | 0.729 ± 0.024 | 0.649 ± 0.013 | 0.719 ± 0.011 | 0.647 ± 0.025 | 0.635 ± 0.011 | 0.712 ± 0.012 | 0.754 ± 0.056 |
| KIKKLKNRRKLV | 0.673 ± 0.0046 | 0.7717 ± 0.0033 | 0.625 ± 0.0071 | 0.7297 ± 0.003 | 0.0918 ± 0.019 | 0.0978 ± 0.0038 | 0.196 ± 0.032 | 0.166 ± 0.088 |
| KKKKQKKNNNKR | 0.699 ± 0.094 | 0.687 ± 0.15 | 0.676 ± 0.083 | 0.755 ± 0.034 | 0.668 ± 0.011 | 0.6 ± 0.027 | 0.698 ± 0.079 | 0.536 ± 0.074 |
| KLKDLTRIKIFR | 0.681 ± 0.0063 | 0.714 ± 0.033 | 0.666 ± 0.031 | 0.6989 ± 0.0069 | 0.6428 ± 0.002 | 0.6737 ± 0.0056 | 0.701 ± 0.011 | 0.722 ± 0.019 |
| KRARVIWKLVVV | 0.59 ± 0.033 | 0.528 ± 0.008 | 0.408 ± 0.024 | 0.583 ± 0.006 | 0.23 ± 0.01 | 0.287 ± 0.015 | 0.4876 ± 0.0039 | 0.445 ± 0.0046 |
| KRMVEKNKKKIN | 0.57 ± 0.063 | 0.747 ± 0.087 | 0.613 ± 0.029 | 0.729 ± 0.024 | 0.153 ± 0.024 | 0.201 ± 0.037 | 0.368 ± 0.012 | 0.31 ± 0.036 |
| KSSIGVWTLLIR | 0.282 ± 0.012 | 0.3 ± 0.026 | 0.337 ± 0.026 | 0.454 ± 0.022 | 0.564 ± 0.02 | 0.334 ± 0.035 | 0.423 ± 0.022 | 0.494 ± 0.016 |
| KSTLVRILVFHV | 0.559 ± 0.047 | 0.6474 ± 0.0042 | 0.458 ± 0.028 | 0.646 ± 0.044 | 0.2825 ± 0.0003 | 0.303 ± 0.0068 | 0.522 ± 0.0089 | 0.384 ± 0.071 |
